{
  "source": "IntAct's records for PubMed 23222540",
  "target": "ogt1_human OGT (UniProt O15294)",
  "sequence (O15294 whole entry)": "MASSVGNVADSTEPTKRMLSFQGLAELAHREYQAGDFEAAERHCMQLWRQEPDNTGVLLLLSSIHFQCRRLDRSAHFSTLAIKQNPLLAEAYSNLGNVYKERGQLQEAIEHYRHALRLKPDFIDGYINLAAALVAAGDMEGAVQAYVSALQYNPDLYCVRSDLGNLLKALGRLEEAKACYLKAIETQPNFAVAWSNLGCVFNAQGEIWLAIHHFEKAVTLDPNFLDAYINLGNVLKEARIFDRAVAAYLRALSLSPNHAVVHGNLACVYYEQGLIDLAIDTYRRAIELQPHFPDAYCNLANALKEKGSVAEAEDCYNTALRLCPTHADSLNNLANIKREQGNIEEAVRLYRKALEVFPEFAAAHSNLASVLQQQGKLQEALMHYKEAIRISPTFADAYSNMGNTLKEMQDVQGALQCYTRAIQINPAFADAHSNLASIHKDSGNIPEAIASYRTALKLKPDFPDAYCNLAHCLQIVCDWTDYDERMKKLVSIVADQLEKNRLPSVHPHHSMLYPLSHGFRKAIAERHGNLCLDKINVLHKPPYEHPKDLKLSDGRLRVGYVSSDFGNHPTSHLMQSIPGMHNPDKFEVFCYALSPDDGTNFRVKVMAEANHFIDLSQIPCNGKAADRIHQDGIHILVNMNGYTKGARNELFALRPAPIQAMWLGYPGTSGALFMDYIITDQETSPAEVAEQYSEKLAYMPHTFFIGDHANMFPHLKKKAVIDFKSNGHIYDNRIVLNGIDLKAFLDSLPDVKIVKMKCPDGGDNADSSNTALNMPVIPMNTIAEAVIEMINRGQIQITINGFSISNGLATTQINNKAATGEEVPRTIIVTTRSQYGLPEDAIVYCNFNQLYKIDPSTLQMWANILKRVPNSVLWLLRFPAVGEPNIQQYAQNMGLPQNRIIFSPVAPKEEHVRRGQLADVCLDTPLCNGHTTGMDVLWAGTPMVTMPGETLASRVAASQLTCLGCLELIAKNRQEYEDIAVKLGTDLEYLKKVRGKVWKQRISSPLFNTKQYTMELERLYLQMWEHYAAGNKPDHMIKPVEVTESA",
  "data": [
    {"substance": "Methylcytosine dioxygenase TET2 (Homo sapiens), Q6N021-1 H1382Y;D1384A", "values": [
      {"measurement": "effect of a mutation on the interaction", "value": "with no effect"}
    ]}
  ]
}
